Experimental data as given in patent publication US20070161550A1, “Antiviral compositions which inhibit paramyxovirus infection” (priority 2003, published 2007).

Assays:
RSV A2 [1] = assay: Inhibition of virus infectivity in vivo, lung virus titers in BALB/c mice; conditions: for average reduction in virus load: all experiments at the 500 μg/dose; for reduced infectivity, fold: co-administration with RSV (Table 16)
Method: Inhibition of virus infectivity in vivo. […] All administrations were intranasal (0.05 ml) and performed under injected anesthesia (60 mg ketamine/kg and 2.5 mg xylazine/kg (The Butler Co.; Dublin Ohio)). Four days later the lungs were removed, homogenized, clarified by low speed centrifugation, snap frozen, and stored at −70° C. until plaque assays were performed using HEp-2 cell monolayers (Hancock et al. 1996). All animals were housed in a facility accredited by the American Association for Accreditation of Laboratory Animal Care.
(§1) Plaque assay. Virus plaques were visualized as previously described (Hancock et al. 1996) using anti-F protein (L4) mAb (Paradiso et al., 1991; Walsh and Hruska, 1983). Thereafter, cells were rinsed with blotto blocking agent (PBS, 5% powdered milk) and incubated with horseradish peroxidase-conjugated goat anti-mouse IgG (Kirkegaard and Perry Laboratories, Inc.; Gaithersburg, Md.). Bound antibody was detected using 0.05% 4-chloro-1-naphtol containing 0.1% H2O2 in PBS. After enumeration of plaques, the mean percent infectivity (±1 standard deviation of triplicate wells) was calculated relative to monolayers exposed to virus in culture medium alone without chemokine or anti-chemokine receptor antibody.

RSV A2 [2] = assay: Inhibition of RSV infectivity in vitro, plaque assay on HEp-2 cell monolayers; assay type: cell-based, respiratory syncytial virus (RSV); conditions: for effect on RSV infectivity (in words): prior exposure (1 hour) of HEp-2 cells to recombinant chemokine, up to 10 μg/ml
Method: Inhibition of virus infectivity in vitro. HEp-2 cell monolayers were grown in 96-well tissue culture plates (Falcon, Becton Dickson and Co.; Franklin Lakes, N.J.) with complete medium. The monolayers were pre-treated for 1 hour at 4° C. or 37° C. in triplicate wells with the indicated amounts of recombinant chemokine or anti-chemokine receptor antibody. After removal of chemokine or antibody, the monolayers were infected 1 hour at the same temperature with the denoted wild type or mutant RSV strain and then overlaid with 2% Sephadex (Amersham Biosciences; Piscataway, N.J.). Anti-viral activity was also assessed 1 hour after the cells were infected, or following simultaneous exposure of the monolayers to virus in a 1:1 mixture with the indicated doses of chemokines or CCL5 peptides. The inhibitory properties of the anti-chemokine receptor antibodies were tested alone or in combination at doses ranging from 5 to 100 μg/ml culture medium.
as §1

[3] = Table 10, 1 μg/ml, exposed 1 hour before infection, plaques after 3 days
[4] = Table 10, 5 μg/ml, exposed 1 hour before infection, plaques after 3 days
[5] = Table 10, 10 μg/ml, exposed 1 hour before infection, plaques after 3 days, relative to control wells (100%)
[6] = Table 16 Exp. 1, 500 μg/dose, simultaneously admixed with RSV A2, intranasal, lungs four days later
[7] = Table 12, 10 μg/ml, 1 hour after removal of RSV A2 (POST)
[8] = Table 12, 10 μg/ml, 1 hour prior to infection (PRE)
[9] = Table 11, 1 μg/ml, exposed 1 hour before infection, plaques after 3 days
[10] = Table 11, 5 μg/ml, exposed 1 hour before infection, plaques after 3 days
[11] = Table 11, 10 μg/ml, exposed 1 hour before infection, plaques after 3 days

## TPCCFAYIARPLPRA (listed as Homo sapiens) [Peptide 2, CCL5 amino acids 8-22]
RSV A2 [1]
  average reduction in virus load: 0.9 log10

## AHIKEYFYTSGKCSN (listed as Homo sapiens) [Peptide 4, CCL5 amino acids 22-36]
RSV A2 [1]
  average reduction in virus load: 1.2 log10

## PAVVFVTRKNRQVC (listed as Homo sapiens) [Peptide 6, CCL5 amino acids 37-50]
RSV A2 [1]
  average reduction in virus load: 0.5 log10

## CCL11: recombinant human chemokine CCL11 (eotaxin)
RSV A2 [2]; [3]
  Percent Infectivity: 94.4 ± 4.8%
RSV A2 [2]; [4]
  Percent Infectivity: 93.1 ± 12.7%
RSV A2 [2]; [5]
  Percent Infectivity: 94.4 ± 4.8%
RSV A2 [2]
  effect on RSV infectivity (in words): did not impair RSV infectivity

## EKKWVREYINSLEMS (listed as Homo sapiens) [Peptide 9, CCL5 amino acids 54-68]
RSV A2 [1]; Table 16 Exp. 1, 250 μg/dose, simultaneously admixed with RSV A2, four days
  RSV/Gram Lung Tissue (log10): 3.7 ± 0.1 log10
RSV A2 [1]
  average reduction in virus load: 1.4 log10
  reduced infectivity, fold: approximately 10 fold

## CANPEKKWVREYINS (listed as Homo sapiens) [Peptide 8, CCL5 amino acids 50-64]
RSV A2 [1]; [6]
  RSV/Gram Lung Tissue (log10): 3.6 ± 0.03 log10
RSV A2 [1]
  average reduction in virus load: 1.0 log10
  reduced infectivity, fold: approximately 10 fold

## NC(=O)CN(CC(N)=O)S(=O)(=O)c1cccc(Nc2nc(Nc3cccc(S(=O)(=O)N(CC(N)=O)CC(N)=O)c3)nc(Nc3ccc(-c4ccc(Nc5nc(Nc6cccc(S(=O)(=O)N(CC(N)=O)CC(N)=O)c6)nc(Nc6cccc(S(=O)(=O)N(CC(N)=O)CC(N)=O)c6)n5)cc4S(=O)(=O)O)c(S(=O)(=O)O)c3)n2)c1 [RFI-641, reference compound]
RSV A2 [1]; BALB/c mouse model
  inhibition of RSV infection in vivo (in words): inhibitory against RSV infection
RSV A2 [1]; Table 16 Exp. 1, 25 μg/dose, simultaneously admixed with RSV A2, four days
  RSV/Gram Lung Tissue (log10): 2.7 ± 0.2 log10
RSV A2 [1]; Table 16 Exp. 2, 25 μg/dose, simultaneously admixed with RSV A2, four days
  RSV/Gram Lung Tissue (log10): 2.7 ± 0.3 log10

## TRKNRQVCANPEKKW (listed as Homo sapiens) [Peptide 7, CCL5 amino acids 43-57]
RSV A2 [1]; [6]
  RSV/Gram Lung Tissue (log10): 4.6 ± 0.1 log10
RSV A2 [1]; Table 17, 500 μg, Simultaneous with RSV A2, four days
  RSV/Gram Lung Tissue (log10): 3.8 ± 0.1 log10
RSV A2 [1]
  average reduction in virus load: 1.1 log10

B1: CCL8: recombinant human chemokine CCL8 (MCP-2) (protein, UniProt P80075 24-99, looked up)
C-C motif chemokine 8: QPDSVSIPITCCFNVINRKIPIQRLESYTRITNIQCPKEAVIFKTKRGKEVCADPKERWVRDSMKHLDQIFQNLKP
RSV A2 [2]; [3]
  Percent Infectivity: 88.9 ± 6.4%
RSV A2 [2]; [4]
  Percent Infectivity: 100.0 ± 0.0%
RSV A2 [2]; [5]
  Percent Infectivity: 94.4 ± 10.5%
RSV A2 [2]
  effect on RSV infectivity (in words): did not impair RSV infectivity

B2: CCL15: recombinant human chemokine CCL15 (MIP-1δ) (protein, UniProt Q16663 22-113, looked up)
C-C motif chemokine 15: QFTNDAETELMMSKLPLENPVVLNSFHFAADCCTSYISQSIPCSLMKSYFETSSECSKPGVIFLTKKGRQVCAKPSGPGVQDCMKKLKPYSI
RSV A2 [2]; [7]
  Percent Infectivity: 93 ± 4%
RSV A2 [2]; [8]
  Percent Infectivity: 97 ± 8%
RSV A2 [2]
  effect on RSV infectivity (in words): did not impair RSV infectivity

B3: CCL4: recombinant human chemokine CCL4 (MIP-1β) (protein, UniProt P13236 24-92, looked up)
C-C motif chemokine 4: APMGSDPPTACCFSYTARKLPRNFVVDYYETSSLCSQPAVVFQTKRSKQVCADPSESWVQEYVYDLELN
RSV A2 [2]; [9]
  Percent Infectivity: 104.0 ± 4.0%
RSV A2 [2]; [10]
  Percent Infectivity: 99.0 ± 9.0%
RSV A2 [2]; [11]
  Percent Infectivity: 98.0 ± 5.0%
RSV A2 [2]
  effect on RSV infectivity (in words): did not impair infectivity

B4: CCL3: recombinant human chemokine CCL3 (MIP-1α) (protein, UniProt P10147 24-92, looked up)
C-C motif chemokine 3: SLAADTPTACCFSYTSRQIPQNFIADYFETSSQCSKPGVIFLTKRSRQVCADPSEEWVQKYVSDLELSA
RSV A2 [2]; [3]
  Percent Infectivity: 95.8 ± 11.0%
RSV A2 [2]; [4]
  Percent Infectivity: 97.2 ± 8.7%
RSV A2 [2]; [5]
  Percent Infectivity: 86.1 ± 2.4%
RSV A2 [2]; [9]
  Percent Infectivity: 103.0 ± 3.0%
RSV A2 [2]; [10]
  Percent Infectivity: 98.0 ± 1.0%
RSV A2 [2]; [11]
  Percent Infectivity: 91.0 ± 5.0%
RSV A2 [2]; [7]
  Percent Infectivity: 104 ± 7%
RSV A2 [2]; [8]
  Percent Infectivity: 91 ± 10%
RSV A2 [2]
  effect on RSV infectivity (in words): did not impair infectivity
